According to PMC9320808:

Columns and labels:
[1] = biological target: PD-L1-6His-tag (Programmed cell Death Ligand 1) of the Cisbio Human PD1/PD-L1 biochemical binding assay (human) (UniProt Q9NZQ7); experiment: AlphaScreen or HTRF
[2] = biological target: human PD-L1 expressed on CHO-K1 cells (CHO-K1 hPD-L1) (human) (UniProt Q9NZQ7); experiment: radioligand binding
Sequence of human PD-L1 expressed on CHO-K1 cells (CHO-K1 hPD-L1) (human) (Q9NZQ7 19-290): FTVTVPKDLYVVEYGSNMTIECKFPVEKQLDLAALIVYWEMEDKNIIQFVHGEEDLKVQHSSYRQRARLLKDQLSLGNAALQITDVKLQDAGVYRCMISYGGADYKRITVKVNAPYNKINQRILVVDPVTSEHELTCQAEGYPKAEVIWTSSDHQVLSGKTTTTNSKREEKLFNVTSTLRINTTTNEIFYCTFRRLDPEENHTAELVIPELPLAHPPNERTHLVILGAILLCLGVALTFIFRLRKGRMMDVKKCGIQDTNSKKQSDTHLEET

Sequence of PD-L1-6His-tag (Programmed cell Death Ligand 1) of the Cisbio Human PD1/PD-L1 biochemical binding assay (human) (Q9NZQ7 19-238): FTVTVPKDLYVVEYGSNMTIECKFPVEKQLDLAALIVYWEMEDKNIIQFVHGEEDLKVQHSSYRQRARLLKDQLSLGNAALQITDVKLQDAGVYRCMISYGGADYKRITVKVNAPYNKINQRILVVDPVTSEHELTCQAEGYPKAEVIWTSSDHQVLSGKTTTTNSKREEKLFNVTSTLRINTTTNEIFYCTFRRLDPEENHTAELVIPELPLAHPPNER

cell internalization %AD/10^6 cells (90 min) (%AD/10^6 cells) [2] | membrane bound %AD/10^6 cells (90 min) (%AD/10^6 cells) [2] | Substance | IC50 [1] [nM]
 |  | BMS78, 14-mer macrocyclic peptide | 133
 |  | NJMP1 (BMS78 C-terminally conjugated to Lys(DOTA)NH2) (peptide) | 242
1.68 | 0.36 | [68Ga]Ga-NJMP1 (peptide) | 
19.2 | 18.2 | [68Ga]Ga-WL12 (WL12 with DOTAGA on Orn13, loaded with 68Ga) (peptide) | 
 |  | natGa-NJMP1 (peptide) | 25900
 |  | natGa-WL12 (WL12 with DOTAGA on Orn13, loaded with natGa) (peptide) | 12.4
